# Molecular target: Cotton leaf curl Kokhran virus-Dabawali V2, His-tagged (Cotton leaf curl Kokhran virus-Dabawali)
# Assay: SPR; BIAcore 2000, 25 C; His-tagged V2 immobilised on Ni-NTA chip (about 340-350 RU); GST-CP 100-800 nM flowed at 20 ul/min, 90 s association; 10 mM HEPES pH 7.4, 150 mM NaCl, 50 uM EDTA, 0.005% surfactant P-20; global fit, 1:1 Langmuir model
substance,measurement,value
GST-CP fusion protein (coat protein of Cotton leaf curl Kokhran virus-Dabawali) (natural protein),Kd,2600 nM
same,koff,0.00267 s⁻¹
same,kon,1030 M⁻¹ s⁻¹
